{
  "source": "IntAct's records for PubMed 21081649",
  "parents": {"B1": {"name": "NAD-dependent protein deacetylase sirtuin-2 (Homo sapiens), Q8IXJ6-2 (parent)", "chain": "MDFLRNLFSQTLSLGSQKERLLDELTLEGVARYMQSERCRRVICLVGAGISTSAGIPDFRSPSTGLYDNLEKYHLPYPEAIFEISYFKKHPEPFFALAKELYPGQFKPTICHYFMRLLKDKGLLLRCYTQNIDTLERIAGLEQEDLVEAHGTFYTSHCVSASCRHEYPLSWMKEKIFSEVTPKCEDCQSLVKPDIVFFGESLPARFFSCMQSDFLKVDLLLVMGTSLQVQPFASLISKAPLSTPRLLINKEKAGQSDPFLGMIMGLGGGMDFDSKKAYRDVAWLGECDQGCLALAELLGWKKELEDLVRREHASIDAQSGAGVPNPSTSASPKKSPPPAKDEARTTEREKPQ"}},
  "data": [
    {"variants_of": "B1", "conditions": "with h4_human H4C16, P62805", "values": [
      {"variant": "MDFARNLFSQTASLGSQKERLLDELTLEGVARYMQSERCRRVICLVGAGISTSAGIPDFRSPSTGLYDNLEKYHLPYPEAIFEISYFKKHPEPFFALAKELYPGQFKPTICHYFMRLLKDKGLLLRCYTQNIDTLERIAGLEQEDLVEAYGTFYTSHCVSASCRHEYPLSWMKEKIFSEVTPKCEDCQSLVKPDIVFFGESLPARFFSCMQSDFLKVDLLLVMGTSLQVQPFASLISKAPLSTPRLLINKEKAGQSDPFLGMIMGLGGGMDFDSKKAYRDVAWLGECDQGCLALAELLGWKKELEDLVRREHASIDAQSGAGVPNPSTSASPKKSPPPAKDEARTTEREKPQ", "note": "[L4A;L12A;H150Y]", "effect of a mutation on the interaction": "increasing interaction"}
    ]}
  ]
}
